This assay deals with T1, cytosolic receptor domain of rat Tom20 (dTom20), uniformly 15N-labelled (Rattus norvegicus, UniProt Q62760 51-145, uniformly [15N]-labelled).
T1 construct: Tom20 from Rattus norvegicus, cytosolic receptor domain, residues 51-145; Cloned into pET-22b without the stop codon; also called [15N]-dTom20; rat dTom20; source: E. coli BL21(DE3), purified (Ni-NTA, gel filtration on Superdex 200)
T1 sequence (looked up): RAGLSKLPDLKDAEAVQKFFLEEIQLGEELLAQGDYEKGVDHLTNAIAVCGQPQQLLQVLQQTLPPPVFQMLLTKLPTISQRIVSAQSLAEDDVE
In words: NMR titration; [1H,15N]-HSQC of 210 μM [15N]-dTom20 in 20 mM KPi pH 6.4, 50 mM KCl, 5% DMSO; aliquots of 10 mM unlabelled cyclic peptide in DMSO added (two molar excess); DMSO effect subtracted. The conditions noted are these: both partners purified.

These results are taken from publication PMC4931251, “Characterization of the targeting signal in mitochondrial β-barrel proteins” (Nature Communications, 2016).

B1: cyclic β-hairpin peptide derived from human voltage-dependent anion channel 1 (hVDAC1) (peptide)
peptide: LTLSALLDGKNVNAGGHKLGLGLPP
modifications: head-to-tail cyclised: the new C terminus (after the two added Pro) covalently linked to the N terminus
notes: human voltage-dependent anion channel 1 (hVDAC1), last two β-strands and the loop between them, a.a; L257 to L279; residue numbers correspond to full-length hVDAC1; two Pro residues added to the C terminus (told in words); Measured mass [M+H]+ = 2,436.48; also called cyclic peptide; source: synthetic peptide (Fmoc/tBu chemistry, cyclised, purified by RP-HPLC)
Consider B1, for which the binding result is listed as “binds”.
